Results on 21 molecules are retold here after US20240376156A1, “MULTIPLE DE NOVO DESIGNED PROTEIN BINDING PROTEINS” (UNIVERSITY OF WASHINGTON, priority 2021, published 2024).

One may read the Kd as the constant that tells how readily two partners part at equilibrium.

Like-named read-outs stand apart in the source and are kept apart here.

For data set [1], the target named is T1, IL-7Rα (Homo sapiens, UniProt P16871).
T1 construct: IL-7Rα (residues 37-231, Uniprot ID P16871); IgK signal peptide (N); made in house; host or cells: mammalian cells
T1 sequence (P16871 37-231): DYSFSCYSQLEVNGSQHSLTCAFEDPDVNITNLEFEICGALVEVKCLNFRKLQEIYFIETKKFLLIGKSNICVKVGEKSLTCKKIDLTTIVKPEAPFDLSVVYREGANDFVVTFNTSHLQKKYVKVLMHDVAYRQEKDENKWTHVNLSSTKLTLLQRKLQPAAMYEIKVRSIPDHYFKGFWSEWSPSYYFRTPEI
Description: Biolayer interferometry binding to IL-7Rα. In general terms: BLI is a label-free optical method that tracks binding on a fibre tip over time.

Data set [2] is described as follows: Circular dichroism wavelength scans and temperature melts (Tm). It is filed as physicochemical.
The target in data set [3] is Influenza A H3 hemagglutinin (A/Hong Kong/1/1968) ectodomain (Influenza A virus (A/Hong Kong/1/1968), UniProt Q91MA7 17-530). The data set is described as follows: BLI (Octet); biotinylated target on streptavidin sensors, miniprotein as analyte.
Data set [4] concerns the target T2, Influenza A H1 hemagglutinin (A/Puerto Rico/8/1934), ectodomain (Influenza A virus (A/Puerto Rico/8/1934), UniProt P03452 18-528).
T2 construct: extracellular domain
The data set is described as follows: method not named in the sentence (FIG. 7b).

In data set [5] the target is T3, TGF-β (Acro Biosystems Cat #TG1-H8217) (human, UniProt P01137 279-390).
T3 construct: also called TGFb; Transforming growth factor beta
The data set is described as follows: BLI (Octet); biotinylated target on streptavidin sensors, miniprotein as analyte.

Data set [6] has as its target T4, InsulinR ectodomain (residues 28-953) (human, UniProt P06213 28-953).
T4 construct: range 28-953; also called IR; Insulin receptor
The data set is described as follows: BLI (Octet); miniprotein immobilized on AR2G sensors, insulin receptor as analyte.

Data set [7] has as its target T5, PDGFR ectodomain (residues 33-314) (human, UniProt P09619 33-314).
T5 construct: range 33-314; also called Platelet-derived growth factor receptor
Description: BLI (Octet); biotinylated target on streptavidin sensors, miniprotein as analyte.

Data set [8] concerns the target T6, Biotinylated CD3 protein (Abcam Cat #ab205994) (human, UniProt P04234 22-105).
T6 construct: also called CD3δ; CD3 delta chain
The data set is described as above.

Data set [9] addresses T7, InsulinR (Homo sapiens, UniProt P06213).
T7 construct: InsulinR (residues ID 28-953, Uniprot ID P06213); IgK signal peptide (N); TEV cleavage site (C); 6-His-tag (C); AviTag (C); made in house; host or cells: mammalian cells
The data set is described as follows: Biolayer interferometry binding to InsulinR (miniprotein on AR2G biosensor, receptor as analyte).

Data set [10] concerns signaling through FGFR2. The data set is described as follows: Inhibition of native agonist signaling through FGFR2 on cells in culture. The class given is cell-based. To be noted: data not shown.
Data set [11] deals with T8, FGFR2 (Homo sapiens, UniProt P21802).
T8 construct: FGFR2 (residues 147-366, Uniprot ID P21802); IgK signal peptide (N); made in house; host or cells: mammalian cells
The data set is described as follows: Biolayer interferometry binding to FGFR2.

Data set [12] addresses T9, EGFR ectodomain (residues 25-525) (human, UniProt P00533 25-525).
T9 construct: also called EGER; Epidermal growth factor receptor
The data set is described as follows: BLI (Octet); biotinylated target on streptavidin sensors, miniprotein as analyte.

Data set [13] addresses IL-7Rα ectodomain (residues 37-231) (human, UniProt P16871 37-231). Described as above.
Data set [14] concerns the target T10, FGFR2 ectodomain (residues 147-366) with C-terminal TEV/His/AviTag (human, UniProt P21802 147-366).
T10 construct: range 147-366; also called Fibroblast growth factor receptor 2
Description: biolayer interferometry.

For data set [15], the target named is T11, FGFR2 ectodomain (residues 147-366) (human, UniProt P21802 147-366).
T11 construct: range 147-366; also called FGER2; Fibroblast growth factor receptor 2
The data set is described as follows: BLI (Octet); biotinylated target on streptavidin sensors, miniprotein as analyte.

Data set [16] addresses T12, Tie2 ectodomain (residues 23-445) (human, UniProt Q02763 23-445).
T12 construct: range 23-445; also called Angiopoietin-1 receptor
The data set is described as follows: BLI (Octet); biotinylated target on streptavidin sensors, MBP-tagged miniprotein as analyte.

Data set [17] addresses T13, Tie2 (Homo sapiens, UniProt Q02763).
T13 construct: Tie2 (residues 23-445, Uniprot ID Q02763); IgK signal peptide (N); made in house; host or cells: mammalian cells
Description: Biolayer interferometry binding to Tie2 (MBP-tagged miniprotein as analyte).

Data set [18] deals with T14, IGF1R (Homo sapiens, UniProt P08069).
T14 construct: IGF1R (residues 31-930, Uniprot ID P08069); IgK signal peptide (N); made in house; host or cells: mammalian cells
The data set is described as follows: Biolayer interferometry binding to IGF1R (MBP-tagged miniprotein as analyte).

Data set [19] concerns the target T15, IGF1R ectodomain (residues 31-930) (human, UniProt P08069 31-930).
T15 construct: range 31-930; also called IGFIR; Insulin-like growth factor 1 receptor
Description: BLI (Octet); biotinylated target on streptavidin sensors, MBP-tagged miniprotein as analyte.

Data set [20] addresses Human TrkA ECD (residues 36-382) with C-terminal BAP tag and 6xHis tag (human, UniProt P04629 36-382). Description: biolayer interferometry.
The target in data set [21] is human TrkA ECD (residues 36-382) (human, UniProt P04629 36-382). The data set is described as follows: BLI (Octet); biotinylated target on streptavidin sensors, miniprotein as analyte.
human TrkA ECD (residues 36-382), sequence (P04629 other isoform, or with tags, fused parts or gaps limits assumed): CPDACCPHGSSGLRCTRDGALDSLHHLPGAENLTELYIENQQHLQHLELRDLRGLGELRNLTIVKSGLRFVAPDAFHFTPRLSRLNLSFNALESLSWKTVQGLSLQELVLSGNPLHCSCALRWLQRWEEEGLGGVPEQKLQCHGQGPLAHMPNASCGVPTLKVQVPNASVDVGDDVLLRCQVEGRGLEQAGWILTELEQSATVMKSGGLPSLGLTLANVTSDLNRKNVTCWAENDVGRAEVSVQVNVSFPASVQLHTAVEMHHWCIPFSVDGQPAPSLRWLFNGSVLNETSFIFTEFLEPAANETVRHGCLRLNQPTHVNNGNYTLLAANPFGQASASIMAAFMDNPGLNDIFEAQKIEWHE

T13 sequence (Q02763 23-445): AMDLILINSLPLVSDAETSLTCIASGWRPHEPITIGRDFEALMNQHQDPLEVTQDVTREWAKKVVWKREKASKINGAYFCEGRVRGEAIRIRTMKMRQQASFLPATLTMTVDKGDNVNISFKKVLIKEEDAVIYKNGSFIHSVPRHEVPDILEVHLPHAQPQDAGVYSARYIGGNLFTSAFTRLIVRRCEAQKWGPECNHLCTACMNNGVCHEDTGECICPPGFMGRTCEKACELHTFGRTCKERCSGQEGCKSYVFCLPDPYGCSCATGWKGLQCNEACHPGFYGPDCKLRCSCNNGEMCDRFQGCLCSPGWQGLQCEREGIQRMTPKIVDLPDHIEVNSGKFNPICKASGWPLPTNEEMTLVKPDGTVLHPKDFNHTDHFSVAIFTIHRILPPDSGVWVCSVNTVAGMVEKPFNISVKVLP
T5 sequence (P09619 other isoform, or with tags, fused parts or gaps limits assumed): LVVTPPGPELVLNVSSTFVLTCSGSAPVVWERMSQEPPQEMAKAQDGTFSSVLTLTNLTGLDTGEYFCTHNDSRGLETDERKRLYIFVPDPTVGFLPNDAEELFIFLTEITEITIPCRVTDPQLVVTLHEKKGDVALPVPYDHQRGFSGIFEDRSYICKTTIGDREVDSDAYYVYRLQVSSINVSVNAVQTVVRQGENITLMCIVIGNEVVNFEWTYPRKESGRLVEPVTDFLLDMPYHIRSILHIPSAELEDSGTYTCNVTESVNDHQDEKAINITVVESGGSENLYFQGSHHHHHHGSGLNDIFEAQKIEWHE
T6 sequence (P04234 22-105 limits assumed): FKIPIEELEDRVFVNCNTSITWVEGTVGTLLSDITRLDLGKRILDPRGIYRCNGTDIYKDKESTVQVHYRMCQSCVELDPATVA
IL-7Rα ectodomain (residues 37-231), sequence (P16871 other isoform, or with tags, fused parts or gaps limits assumed): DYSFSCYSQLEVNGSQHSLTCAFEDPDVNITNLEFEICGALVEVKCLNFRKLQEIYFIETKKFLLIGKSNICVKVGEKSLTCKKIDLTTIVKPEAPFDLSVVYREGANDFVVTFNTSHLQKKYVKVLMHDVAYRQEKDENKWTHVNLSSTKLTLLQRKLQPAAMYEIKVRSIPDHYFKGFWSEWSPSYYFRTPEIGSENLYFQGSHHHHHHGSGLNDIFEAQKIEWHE
T2 sequence (P03452 18-528): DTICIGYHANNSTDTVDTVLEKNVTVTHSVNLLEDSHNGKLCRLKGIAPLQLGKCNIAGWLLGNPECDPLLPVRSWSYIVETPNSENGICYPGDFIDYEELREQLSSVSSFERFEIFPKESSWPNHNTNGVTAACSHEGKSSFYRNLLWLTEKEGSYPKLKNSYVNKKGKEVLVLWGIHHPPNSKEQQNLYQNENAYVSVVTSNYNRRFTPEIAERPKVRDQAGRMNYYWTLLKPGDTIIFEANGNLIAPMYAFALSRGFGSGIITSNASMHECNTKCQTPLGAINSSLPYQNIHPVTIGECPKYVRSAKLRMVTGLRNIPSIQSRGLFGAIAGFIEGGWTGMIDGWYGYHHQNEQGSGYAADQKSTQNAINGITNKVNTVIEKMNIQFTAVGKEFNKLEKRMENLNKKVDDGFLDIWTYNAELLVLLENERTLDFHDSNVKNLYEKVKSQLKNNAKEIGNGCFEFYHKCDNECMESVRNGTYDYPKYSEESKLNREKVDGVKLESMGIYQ
T11 sequence (P21802 other isoform, or with tags, fused parts or gaps limits assumed, form in doubt): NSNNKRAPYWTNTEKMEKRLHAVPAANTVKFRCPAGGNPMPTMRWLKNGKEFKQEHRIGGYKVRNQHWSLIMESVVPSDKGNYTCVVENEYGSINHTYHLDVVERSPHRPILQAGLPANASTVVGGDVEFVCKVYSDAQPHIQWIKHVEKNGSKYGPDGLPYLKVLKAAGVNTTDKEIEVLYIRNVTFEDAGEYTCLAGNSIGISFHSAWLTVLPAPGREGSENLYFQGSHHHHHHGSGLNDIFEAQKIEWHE
T10 sequence (P21802 other isoform, or with tags, fused parts or gaps limits assumed, form in doubt): as above
T3 sequence (P01137 279-390 limits assumed): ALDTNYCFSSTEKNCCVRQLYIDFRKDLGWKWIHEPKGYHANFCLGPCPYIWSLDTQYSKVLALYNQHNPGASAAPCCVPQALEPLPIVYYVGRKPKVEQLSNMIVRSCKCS
T12 sequence (Q02763 other isoform, or with tags, fused parts or gaps limits assumed): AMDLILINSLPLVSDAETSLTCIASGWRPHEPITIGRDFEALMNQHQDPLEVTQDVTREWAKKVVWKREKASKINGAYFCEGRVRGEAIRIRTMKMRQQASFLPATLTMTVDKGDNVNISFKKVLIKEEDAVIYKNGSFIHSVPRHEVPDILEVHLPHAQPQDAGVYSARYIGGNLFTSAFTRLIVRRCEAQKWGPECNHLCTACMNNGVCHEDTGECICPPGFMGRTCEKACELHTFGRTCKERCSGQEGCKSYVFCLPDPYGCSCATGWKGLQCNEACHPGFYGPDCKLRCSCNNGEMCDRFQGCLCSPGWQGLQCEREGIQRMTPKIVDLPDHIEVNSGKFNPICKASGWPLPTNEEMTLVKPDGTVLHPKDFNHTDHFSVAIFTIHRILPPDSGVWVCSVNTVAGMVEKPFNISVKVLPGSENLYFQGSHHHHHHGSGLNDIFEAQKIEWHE
Human TrkA ECD (residues 36-382) with C-terminal BAP tag and 6xHis tag, sequence (P04629 other isoform, or with tags, fused parts or gaps limits assumed): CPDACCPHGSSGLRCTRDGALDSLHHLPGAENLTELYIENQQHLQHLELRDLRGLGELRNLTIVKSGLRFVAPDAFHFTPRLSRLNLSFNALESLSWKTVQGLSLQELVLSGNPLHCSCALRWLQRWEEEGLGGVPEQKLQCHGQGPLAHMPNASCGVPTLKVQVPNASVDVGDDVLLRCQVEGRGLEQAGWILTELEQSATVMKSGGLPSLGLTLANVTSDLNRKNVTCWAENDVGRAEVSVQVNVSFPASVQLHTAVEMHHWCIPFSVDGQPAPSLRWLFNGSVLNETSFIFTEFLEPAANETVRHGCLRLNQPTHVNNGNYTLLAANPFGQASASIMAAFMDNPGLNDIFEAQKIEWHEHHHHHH
T8 sequence (P21802 147-366): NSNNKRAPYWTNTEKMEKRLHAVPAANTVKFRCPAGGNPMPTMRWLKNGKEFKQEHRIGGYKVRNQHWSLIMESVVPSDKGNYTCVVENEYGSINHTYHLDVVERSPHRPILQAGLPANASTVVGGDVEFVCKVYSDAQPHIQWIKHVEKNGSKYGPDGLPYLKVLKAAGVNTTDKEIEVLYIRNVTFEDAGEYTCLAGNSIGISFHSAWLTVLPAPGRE
Influenza A H3 hemagglutinin (A/Hong Kong/1/1968) ectodomain, sequence (Q91MA7 17-530): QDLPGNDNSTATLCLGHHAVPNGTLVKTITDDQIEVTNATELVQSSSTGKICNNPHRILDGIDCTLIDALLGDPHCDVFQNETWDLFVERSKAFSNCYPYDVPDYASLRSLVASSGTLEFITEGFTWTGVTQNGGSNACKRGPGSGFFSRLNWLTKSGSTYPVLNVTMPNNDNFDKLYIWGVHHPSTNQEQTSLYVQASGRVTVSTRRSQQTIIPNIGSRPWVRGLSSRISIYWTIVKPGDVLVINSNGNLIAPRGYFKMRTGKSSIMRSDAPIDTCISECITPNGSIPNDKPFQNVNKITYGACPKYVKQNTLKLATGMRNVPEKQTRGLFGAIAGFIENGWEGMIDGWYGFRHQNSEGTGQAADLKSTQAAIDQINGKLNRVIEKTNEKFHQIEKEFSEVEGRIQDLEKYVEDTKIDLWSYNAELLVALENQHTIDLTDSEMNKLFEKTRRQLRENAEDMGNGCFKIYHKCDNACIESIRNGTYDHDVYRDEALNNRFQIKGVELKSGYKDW

As to “IL-7Rα binder: de novo miniprotein binder for IL-7Rα targeting the IL-7 binding site; probably IL7Ra_mb2, SEQ ID NO: 760 (SVKKKVRKVEKKARKAGDELAVLLARRVLEALEKGLVSEEDADESADRIEEALKK)”, the “affinity for IL-7Rα (in words)” value in data set [1] (targeting the IL-7 binding site) is listed as “picomolar affinity”.

For the molecule “IL-7Rα_mb (SVIEKLRKLEKQARKQGDEVLVMLARMVLEYLEKGWVSEEDADESADRIEEVLKK)”, in data set [1] (target IL-7Rα, optimized sequence, read-out: Octet kD), the Kd was 0.312 nM. Moreover, the TM in data set [2] (optimized sequence) was over 95 °C.

B1: H3_mb (designed binder)
chain: MSHHHHHHHHSENLYFQSGGGSQHEKFLEWMLRKIEEAIKRGNKISAEFLINLAKNFIHVLGDDEIRRRLERLERQLH
B1 yielded a Kd in [3] of 320 nM. This molecule gave a TM in [2] of over 95 °C.

B2: H3_mb (optimized H3 hemagglutinin binder, purified from E. coli) (designed binder)
chain: MSHHHHHHHHSENLYFQSGGGSQHEKFLEWMLRKIEEAIKRGNKISAEFLINLAKNFIHVLGDDEIRRRLERLERQLH
Take B2: in [4], the binding result is given as “binds”.

B3: TGF-β_mb (designed binder)
chain: MSHHHHHHHHSENLYFQSGGGHCTIEVVGVDPEKVEAIAAAYGAEVCEKDGKFEIHLDDPHSAESAAVAISVLTNRPVRLQC
As to B3, the affinity in data set [5], expressed as Kd, was 270 nM. The TM in [2] (optimized sequence) was over 95 °C.

B4: InsulinR_mb (designed binder)
chain: MSHHHHHHHHSENLYFQSGGGDEELMELVYEAVEKNDPELLFEAWMELASLLDETGDPKIEEALGLLQQVDGGNPDAGRRIKELFK
Consider B4, for which, in [6], the Kd was determined as 270 nM. The molecule further returned a TM in data set [2] (optimized sequence) of 65 °C ° C.

B5: PDGFR_mb (designed binder)
chain: MSHHHHHHHHSENLYFQSGGGDDERLATLAFRALIKRAGVKNLDVKVTNGKVRVTITGRDQASFKALQLVFALARRLGLQVQIDTR
In the case of B5, the equilibrium dissociation constant (Kd) in data set [7] amounted to 53 nM. The TM in data set [2] (optimized sequence) was over 95 °C.

B6: CD3δ_mb (designed binder)
chain: MSHHHHHHHHSENLYFQSGGGNHIACEIHNPEAAKEIAKVANVRRVYFIKQPGNRYFVLLKNADPEGVKKVRSKYNVRCVIRE
In [8], B6 showed a dissociation constant (Kd) of 612 nM. The TM in data set [2] (optimized sequence) was over 95 °C.

B7: InsulinR binder: optimized de novo miniprotein binder to insulin receptor; probably InsulinR_mb5, SEQ ID NO: 788 (protein)
chain: DEELLELVYEAVEKNDPRLLFEAWMILASLLDKTGDPKIEELLRLLQLVDRGDPDARRRIKELFK
Consider B7, for which the “binding affinity for InsulinR (in words)” value in data set [9] was “weak”.

B8: FGFR2 binder: optimized de novo miniprotein binder to FGFR2; probably SEQ ID NO: 144 (protein)
chain: DRRKEMDKVYRTAFKRITSTPDKEKRKEVVKEATEQLRRIAKDEEEKKKAAYMILFLKTLG
In the case of B8, the “inhibition of signaling through FGFR2 by the native agonist” value in data set [10] is “strong inhibition of signaling”. In [11], the “affinity for FGFR2 (in words)” value is reported as “picomolar”.

B9: EGFRc_mb (designed binder)
chain: MSHHHHHHHHSENLYFQSGGGSLDEAKKLLQEAEKLARKLNDRMELAYVEFLKHILETAKKQNDKRTIESVRDMARDALEELQS
In [12], B9 showed a Kd of 6.8 nM. This molecule registered a TM in [2] (optimized sequence) of 71.2 °C.

B10: IL-7Rα_mb (designed binder)
chain: MSHHHHHHHHSENLYFQSGGGSVIEKLRKLEKQARKQGDEVLVMLARMVLEYLEKGWVSEEDADESADRIEEVLKK
For B10, binding in data set [13] was put at a Kd of 0.312 nM.

B11: FGFR2_mb (optimized FGFR2 binder, purified from E. coli) (designed binder)
chain: MSHHHHHHHHSENLYFQSGGGDRRKEMDKVYRTAFKRITSTPDKEKRKEVVKEATEQLRRIAKDEEEKKKAAYMILFLKTLG
notes: also called FGFR2_mb3
As to B11, the Kd in data set [14] was at most 1 nM.

B12: FGFR2_mb (designed binder)
chain: MSHHHHHHHHSENLYFQSGGGDRRKEMDKVYRTAFKRITSTPDKEKRKEVVKEATEQLRRIAKDEEEKKKAAYMILFLKTLG
As to B12, binding in [15] was put at a Kd of 0.543 nM. In addition, the TM in data set [2] (optimized sequence) is on record as 71.1 ºC ° C.

B13: MBP-tagged Tie2_mb (designed binder)
chain: SIDEELERLLEEAGVDPELIDDLYAVIYQLYIRGLSDKDVLRFLLENLERDGTPLRRVVEELLKR
notes: not shown: N-terminal 6 His-tag and MBP tag
Consider B13, for which binding in data set [16] was characterised by a dissociation constant (Kd) of 584 nM.

B14: Tie2 binder: optimized de novo miniprotein binder to Tie2; probably Tie2_mb2, SEQ ID NO: 1451 (protein)
chain: SIDEELERLLEEAGVDPELIDDLYAVIYQLYIRGLSDKDVLRFLLENLERDGTPLRRVVEELLKR
As for B14, the “binding affinity for Tie2 (in words)” value in data set [17] was “weak and low”.

B15: Tie2_mb (protein)
chain: SIDEELERLLEEAGVDPELIDDLYAVIYQLYIRGLSDKDVLRFLLENLERDGTPLRRVVEELLKR
modifications: left off: large carriers
Molecule B15 had a TM in data set [2] (optimized sequence) of over 95 °C.

B16: MBP-tagged IGF1R_mb (designed binder)
chain: STRNAEFIMLLLELCVKSKNDPQVQEYVKKVKKQVERLVGNGDEKKAEEVARKALEYCADG
notes: as for B13
Consider B16, for which, in data set [18], the “binding affinity for IGF1R (in words)” value is “weak and low”. The molecule further returned a dissociation constant Kd in data set [19] of 860 nM. The same molecule gave a TM in [2] (optimized sequence) of over 95 °C.

B17: EGFRn_mb (designed binder)
chain: MSHHHHHHHHSENLYFQSGGGDHWEEVFRWALEHLQEATQQNDPQKAKKILEEAHKWLRRELSEEEARAVVRWLKQLVDRELS
Consider B17, for which the dissociation constant Kd in [12] came out at 1.7 nM. This molecule also registered a TM in data set [2] (optimized sequence) of over 95 °C.

B18: TrkA_mb (optimized TrkA binder, purified from E. coli) (designed binder)
chain: MSHHHHHHHHSENLYFQSGGGRDEIKERIFKAVVRAIVTGNPEQLKEAKKLLEKLKKLGRLDQDAKKFEKAIRQVEKRLRS
The molecule B18 displayed an equilibrium dissociation constant (Kd) in data set [20] of at most 1 nM.

B19: TrkA_mb (designed binder)
chain: MSHHHHHHHHSENLYFQSGGGRDEIKERIFKAVVRAIVTGNPEQLKEAKKLLEKLKKLGRLDQDAKKFEKAIRQVEKRLRS
The molecule B19 returned a Kd in data set [21] of 1.4 nM.
